This note sets out measurements from PMC3282739.

For orientation: stoichiometry N means the number of molecules, sites or subunits per partner or assembly.

For assay [1], the target named is Cthe_2751 (Clostridium thermocellum). As to the kind of experiment: SEC; Hi Load 10/300 Superdex G75 gel filtration column equilibrated with 20 mM Tris-HCl, 100 mM NaCl, pH 8.0.
The target is the same in assay [2]. As to the kind of experiment: AUC; sedimentation velocity in an analytical ultracentrifuge; curve generated with Sedfit.

Regarding Cthe_2751 (natural protein), the stoichiometry N in assay [1] and in assay [2] was 2 each time.
